{
  "source": "patent WO2018092907A1",
  "about": "(dated 2018)",
  "data": [
    {"target": "T1, TNFR1 on transiently transfected cells (UniProt P19438 30-455, limits assumed)", "T1 construct": "whole, on cells", "T1 sequence (looked up)": "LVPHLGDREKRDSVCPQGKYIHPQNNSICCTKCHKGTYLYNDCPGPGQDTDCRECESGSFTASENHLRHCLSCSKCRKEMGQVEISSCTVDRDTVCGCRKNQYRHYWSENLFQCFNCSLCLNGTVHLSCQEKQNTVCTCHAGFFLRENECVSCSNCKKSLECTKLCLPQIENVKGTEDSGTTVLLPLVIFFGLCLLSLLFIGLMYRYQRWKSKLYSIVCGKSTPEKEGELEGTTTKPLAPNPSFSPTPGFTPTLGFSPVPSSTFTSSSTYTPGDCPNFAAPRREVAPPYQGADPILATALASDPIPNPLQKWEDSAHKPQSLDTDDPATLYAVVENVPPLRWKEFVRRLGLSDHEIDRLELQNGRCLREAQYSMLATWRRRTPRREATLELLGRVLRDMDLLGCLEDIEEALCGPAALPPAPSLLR", "experiment": "flow cytometry on transiently transfected cells", "values": [
      {"binder": "TR109 (anti-TNFR2 antagonist antibody, mouse monoclonal) (antibody, V domains shown, also called Ep9: TR109; Ep7) VH: QVQLKESGPGLVAPSQSLSITCTVSGFSLTVYGVNWVRQPPGKGLEWLGMIWGDGSTAYNSALKSRLTITKDNSKTQVFLKMNSLQTDDTARYYCARDGRRYALDYWGQGTSVTVSS VL: DIVLTQSPTSLAVSLGQRATISCRASESVDSYGDSFLHWYQQKPGQPPILLIYRASNLDSGIPARFSGSGSRTDFTLTINPVEADDVATYYCQQSNEDPYTFGGGTKLEINR", "binding result": "no binding"}
    ]},
    {"target": "T2, human TNFR2 expressed on the cell membrane (membrane-type TNFR2) (human, UniProt P20333 23-461)", "T2 construct": "also called TNFRSF1B; cell membrane type TNFR2", "T2 sequence": "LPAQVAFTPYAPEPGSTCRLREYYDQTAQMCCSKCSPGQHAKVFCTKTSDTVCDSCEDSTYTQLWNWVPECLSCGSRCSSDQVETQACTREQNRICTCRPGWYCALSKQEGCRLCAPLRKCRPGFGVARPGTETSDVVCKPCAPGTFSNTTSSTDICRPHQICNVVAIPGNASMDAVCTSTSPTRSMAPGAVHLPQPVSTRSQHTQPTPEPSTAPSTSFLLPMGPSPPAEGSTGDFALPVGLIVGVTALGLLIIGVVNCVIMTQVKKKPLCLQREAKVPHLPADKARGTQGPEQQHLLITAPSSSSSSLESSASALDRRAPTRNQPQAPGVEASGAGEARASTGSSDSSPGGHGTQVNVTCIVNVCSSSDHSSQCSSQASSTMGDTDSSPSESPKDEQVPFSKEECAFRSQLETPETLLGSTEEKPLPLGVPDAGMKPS", "experiment": "flow cytometry on cells with transient expression of TNFR2 against untreated cells", "values": [
      {"binder": "humanized TR92 antibody (TR92HUVH1 + TR92HUVL1) (antibody, V domains shown, also called one of the four humanized TR92 antibodies) VH: QVQLVQSGAEVKKPGASVKVSCKASGYTFTESIIHWVRQAPGQGLEWMGWFYPGSDNINYNEKFKDRVTMTRDTSISTAYMELSRLRSDDTAVYYCARHEGPYVYFDYWGQGTTVTVSS VL: DIVMTQSPDSLAVSLGERATINCKASQDVSTAVAWYQQKPGQPPKLLIYWTSTRHTGVPDRFSGSGSGTDFTLTISSLQAEDVAVYYCQHHYSTPYTFGQGTKLEIK", "binding result": "binds"},
      {"binder": "humanized TR92 antibody (TR92HUVH1 + TR92HUVL2) (antibody, V domains shown, also called one of the four humanized TR92 antibodies) VH: QVQLVQSGAEVKKPGASVKVSCKASGYTFTESIIHWVRQAPGQGLEWMGWFYPGSDNINYNEKFKDRVTMTRDTSISTAYMELSRLRSDDTAVYYCARHEGPYVYFDYWGQGTTVTVSS VL: DIQMTQSPSSLSASVGDRVTITCKASQDVSTAVAWYQQKPGKAPKLLIYWTSTRHTGVPSRFSGSGSGTDFTLTISSLQPEDFATYYCQHHYSTPYTFGQGTKLEIK", "binding result": "binds"},
      {"binder": "humanized TR92 antibody (TR92HUVH2 + TR92HUVL2) (antibody, V domains shown, also called one of the four humanized TR92 antibodies) VH: QVQLVQSGAEVKKPGASVKVSCKASGYTFTESIIHWVRQATGQGLEWMGWFYPGSDNINYNEKFKDRVTMTRNTSISTAYMELSSLRSEDTAVYYCARHEGPYVYFDYWGQGTTVTVSS VL: DIQMTQSPSSLSASVGDRVTITCKASQDVSTAVAWYQQKPGKAPKLLIYWTSTRHTGVPSRFSGSGSGTDFTLTISSLQPEDFATYYCQHHYSTPYTFGQGTKLEIK", "binding result": "binds"},
      {"binder": "humanized TR92 antibody (TR92HUVH2 + TR92HUVL1) (antibody, V domains shown, also called one of the four humanized TR92 antibodies) VH: QVQLVQSGAEVKKPGASVKVSCKASGYTFTESIIHWVRQATGQGLEWMGWFYPGSDNINYNEKFKDRVTMTRNTSISTAYMELSSLRSEDTAVYYCARHEGPYVYFDYWGQGTTVTVSS VL: DIVMTQSPDSLAVSLGERATINCKASQDVSTAVAWYQQKPGQPPKLLIYWTSTRHTGVPDRFSGSGSGTDFTLTISSLQAEDVAVYYCQHHYSTPYTFGQGTKLEIK", "binding result": "binds"},
      {"binder": "humanized TR109 antibody (TR109HUVH1 + TR109HUVL1) (antibody, V domains shown, also called one of the four humanized TR109 antibodies) VH: QVQLQESGPGLVKPSGTLSLTCAVSGGSISVYGVNWVRQPPGKGLEWIGMIWGDGSTAYNSALKSRVTISVDKSKNQFSLKLSSVTAADTAVYYCARDGRRYALDYWGQGTLVTVSS VL: DIVMTQSPDSLAVSLGERATINCRASESVDSYGDSFLHWYQQKPGQPPKLLIYRASNLDSGVPDRFSGSGSGTDFTLTISSLQAEDVAVYYCQQSNEDPYTFGQGTKLEIK", "binding result": "binds"},
      {"binder": "humanized TR109 antibody (TR109HUVH1 + TR109HUVL2) (antibody, V domains shown, also called one of the four humanized TR109 antibodies) VH: QVQLQESGPGLVKPSGTLSLTCAVSGGSISVYGVNWVRQPPGKGLEWIGMIWGDGSTAYNSALKSRVTISVDKSKNQFSLKLSSVTAADTAVYYCARDGRRYALDYWGQGTLVTVSS VL: EIVLTQSPATLSLSPGERATLSCRASESVDSYGDSFLHWYQQKPGQAPRLLIYRASNLDSGIPARFSGSGSGTDFTLTISSLEPEDFAVYYCQQSNEDPYTFGQGTKLEIK", "binding result": "binds"},
      {"binder": "humanized TR109 antibody (TR109HUVH2 + TR109HUVL1) (antibody, V domains shown, also called one of the four humanized TR109 antibodies) VH: QVQLQESGPGLVKPSETLSLTCTVSGYSISVYGVNWIRQPPGKGLEWIGMIWGDGSTAYNSALKSRVTISVDTSKNQFSLKLSSVTAADTAVYYCARDGRRYALDYWGQGTLVTVSS VL: DIVMTQSPDSLAVSLGERATINCRASESVDSYGDSFLHWYQQKPGQPPKLLIYRASNLDSGVPDRFSGSGSGTDFTLTISSLQAEDVAVYYCQQSNEDPYTFGQGTKLEIK", "binding result": "binds"},
      {"binder": "humanized TR109 antibody (TR109HUVH2 + TR109HUVL2) (antibody, V domains shown, also called one of the four humanized TR109 antibodies) VH: QVQLQESGPGLVKPSETLSLTCTVSGYSISVYGVNWIRQPPGKGLEWIGMIWGDGSTAYNSALKSRVTISVDTSKNQFSLKLSSVTAADTAVYYCARDGRRYALDYWGQGTLVTVSS VL: EIVLTQSPATLSLSPGERATLSCRASESVDSYGDSFLHWYQQKPGQAPRLLIYRASNLDSGIPARFSGSGSGTDFTLTISSLEPEDFAVYYCQQSNEDPYTFGQGTKLEIK", "binding result": "binds"}
    ]}
  ]
}
